In the Human Domainome abundance scans (Beltran et al. 2025):
± gives the uncertainty stated by the source.

B1: Zinc finger homeobox protein 4, residues 2183 to 2238; numbered along this chain, Q86UP3 (parent)
chain: SSRTRFTDYQLRVLQDFFDTNAYPKDDEIEQLSTVLNLPTRVIVVWFQNARQKARK

Variants of: B1
Assay: abundance fitness (aPCA) (normalised: wild type 0, dead -1); higher = more abundant; growth selection in yeast, the domain comes from the species named
Settings: Homo sapiens

Variant | abundance fitness
SSRTRFTDYVLRVLQDFFDTNAYPKDDEIEQLSTVLNLPTRVIVVWFQNARQKARK [Q10V] | -0.547 ± 0.076
SSRTRFTDYQLRVLQDFFDTNDYPKDDEIEQLSTVLNLPTRVIVVWFQNARQKARK [A22D] | 0.002 ± 0.13
SSRTRFTDYQLRVLQDFFDTNFYPKDDEIEQLSTVLNLPTRVIVVWFQNARQKARK [A22F] | -0.228 ± 0.22
SSRTRFTDYQLRVLQDFFDTNAYPKDDEWEQLSTVLNLPTRVIVVWFQNARQKARK [I29W] | -0.352 ± 0.12
SSRTRFTDYQLRVLQDFFDTNAYPKDDESEQLSTVLNLPTRVIVVWFQNARQKARK [I29S] | -0.702 ± 0.11
SSRTRFTDYQLRVLQDFFDTNAYPKDDEIEQLSTVLNYPTRVIVVWFQNARQKARK [L38Y] | -0.431 ± 0.083
SSRTRFTDYQLRVLQDFFDTNAYPKDDEIEQLSTVLNPPTRVIVVWFQNARQKARK [L38P] | -0.913 ± 0.12
SCRTRFTDYQLRVLQDFFDTNAYPKDDEIEQLSTVLNLPTRVIVVWFQNARQKARK [S2C] | 0.197 ± 0.096
SARTRFTDYQLRVLQDFFDTNAYPKDDEIEQLSTVLNLPTRVIVVWFQNARQKARK [S2A] | -0.407 ± 0.094
SSRTRFTDYQGRVLQDFFDTNAYPKDDEIEQLSTVLNLPTRVIVVWFQNARQKARK [L11G] | -0.016 ± 0.21
SSRTRFTDYQLRVLQDFFDTNAYPKDDEIEQLSTVLYLPTRVIVVWFQNARQKARK [N37Y] | -0.595 ± 0.21
SSRTRFTDYQLRVLQDFFDTNAYPKDDEIEQLSTVLNLPTRVPVVWFQNARQKARK [I43P] | -0.869 ± 0.29
SSRTRFTDYQLRVLQDFFDTNAYPKDDEIEQLSTVLNLPTRVMVVWFQNARQKARK [I43M] | -0.394 ± 0.16
SSRTRFTDYQLRVLQDFFDTNAYPKDDEIEQLSTVLNLPTRVEVVWFQNARQKARK [I43E] | -0.69 ± 0.16
SSRTRFTDYQLRVLQDFFDTNAYPKDDEIEQLSTVLNLPTRVRVVWFQNARQKARK [I43R] | -1 ± 0.13
SSRTRFTDYQLRVLQDFFDTNAYPKDDEIEQLSTVLNLPTCVIVVWFQNARQKARK [R41C] | -0.002 ± 0.14
SSRTRFTDYQLRHLQDFFDTNAYPKDDEIEQLSTVLNLPTRVIVVWFQNARQKARK [V13H] | 0.203 ± 0.14
SSRTRFTDYQLRSLQDFFDTNAYPKDDEIEQLSTVLNLPTRVIVVWFQNARQKARK [V13S] | -0.068 ± 0.11
SSRTRFTDYQLRNLQDFFDTNAYPKDDEIEQLSTVLNLPTRVIVVWFQNARQKARK [V13N] | -0.064 ± 0.2
SSRTVFTDYQLRVLQDFFDTNAYPKDDEIEQLSTVLNLPTRVIVVWFQNARQKARK [R5V] | 0.133 ± 0.13
SSRTWFTDYQLRVLQDFFDTNAYPKDDEIEQLSTVLNLPTRVIVVWFQNARQKARK [R5W] | -0.11 ± 0.17
SSRTRFTDYQLRVLQDFFDTNAYEKDDEIEQLSTVLNLPTRVIVVWFQNARQKARK [P24E] | -0.823 ± 0.14
SSRTRFTDYQLRVLQDFFDTNAYCKDDEIEQLSTVLNLPTRVIVVWFQNARQKARK [P24C] | -0.567 ± 0.13
SSRTRFTDYQLRVLQDFFDTNAPPKDDEIEQLSTVLNLPTRVIVVWFQNARQKARK [Y23P] | -0.345 ± 0.12

Variant | abundance fitness
SSRTRFTDYQLRVLQDFFDTNAGPKDDEIEQLSTVLNLPTRVIVVWFQNARQKARK [Y23G] | -0.169 ± 0.089
SSRTRFTDYQLRVLQDFFDTNAYPKDDEIEQLSTVLNLPTRVIVVWHQNARQKARK [F47H] | -0.6 ± 0.47
SSRTRFTDYQLRVLQDFFDTNAYPKDDEIEQLSTVLNLPTRVIVVWNQNARQKARK [F47N] | -0.778 ± 0.41
SSRTRFTDYQLRVLQDFFDTNAYPEDDEIEQLSTVLNLPTRVIVVWFQNARQKARK [K25E] | -0.455 ± 0.12
SSRTRFTDYQLRVLQDFFDTNAYPADDEIEQLSTVLNLPTRVIVVWFQNARQKARK [K25A] | -0.203 ± 0.096
SSRTRFTDYQLRVLQDFFDTNAYPYDDEIEQLSTVLNLPTRVIVVWFQNARQKARK [K25Y] | -0.76 ± 0.18
SSRTRFTDYQLRVLQDFFDTNAYPKDDEIEMLSTVLNLPTRVIVVWFQNARQKARK [Q31M] | -0.212 ± 0.12
SSRTRFTDYQLRVLQDFFDTNAYPKDDEIETLSTVLNLPTRVIVVWFQNARQKARK [Q31T] | -0.252 ± 0.13
SSRTRFTDYQLRVLQDFFDTNAYPKDDEIEQLSTVLNLPTRVIVVWFQNARQKARM [K56M] | -0.079 ± 0.24
SSRTRFTDYQLRVLQDDFDTNAYPKDDEIEQLSTVLNLPTRVIVVWFQNARQKARK [F17D] | -0.591 ± 0.19
SSRTRFTDYQLRVLQDMFDTNAYPKDDEIEQLSTVLNLPTRVIVVWFQNARQKARK [F17M] | -0.004 ± 0.12
SSRTRFTDYQLRVLQDQFDTNAYPKDDEIEQLSTVLNLPTRVIVVWFQNARQKARK [F17Q] | 0.051 ± 0.11
SSRTRFWDYQLRVLQDFFDTNAYPKDDEIEQLSTVLNLPTRVIVVWFQNARQKARK [T7W] | -0.719 ± 0.15
SSRTRFKDYQLRVLQDFFDTNAYPKDDEIEQLSTVLNLPTRVIVVWFQNARQKARK [T7K] | -0.455 ± 0.18
SSRTRFTDYQLRVLQVFFDTNAYPKDDEIEQLSTVLNLPTRVIVVWFQNARQKARK [D16V] | -0.25 ± 0.086
SSRTRFTDYQLRVLQLFFDTNAYPKDDEIEQLSTVLNLPTRVIVVWFQNARQKARK [D16L] | -0.602 ± 0.098
SSRTRFTDYQLRVLQFFFDTNAYPKDDEIEQLSTVLNLPTRVIVVWFQNARQKARK [D16F] | -0.806 ± 0.25
SSRTRFTDYQLRVLQQFFDTNAYPKDDEIEQLSTVLNLPTRVIVVWFQNARQKARK [D16Q] | 0.027 ± 0.12
SSRTRFTDYQLRVLQDFFDTNAYPKDDEIRQLSTVLNLPTRVIVVWFQNARQKARK [E30R] | 0.031 ± 0.079
SSRTRFTDYQLRVLQDFFDTNAYPKDDEIVQLSTVLNLPTRVIVVWFQNARQKARK [E30V] | -0.119 ± 0.079
SSRTRFTDYQLRVLQDFFDTNAYPKDDEIFQLSTVLNLPTRVIVVWFQNARQKARK [E30F] | -0.132 ± 0.15
SSRTRFTDYQLRVLQDFFDTNAYPKDDEIEQLSTELNLPTRVIVVWFQNARQKARK [V35E] | -0.153 ± 0.1
SSRTRFTDYQLRVLQDFFDTNAYPKDDEIEQLSTKLNLPTRVIVVWFQNARQKARK [V35K] | 0.157 ± 0.12
